According to patent US20140087995A1 (published 2014):
Numbered stars: 1 amine (or outer) side, 2 acyl side, 3 side chain; on linkers, the order of the positions; unused ones are H or OH. Bridge positions count the residues as written; N and C are the ends. Side chains are listed from the residue outwards. Ends that are not written are not given here. * marks the point of attachment. C20 diacid = O=C(O)CCCCCCCCCCCCCCCCCCC(=O)*; γGlu = O=C(O)[C@H](CCC(=O)[*:2])N[*:1]; AEEA = NCCOCCOCC(=O)O

T1: human amylin receptor (amylin 3(a) receptor: human calcitonin receptor plus RAMP-3) (human, UniProt P30988 25-474; O60896 24-148, limits assumed)
T1 sequence (looked up) 1: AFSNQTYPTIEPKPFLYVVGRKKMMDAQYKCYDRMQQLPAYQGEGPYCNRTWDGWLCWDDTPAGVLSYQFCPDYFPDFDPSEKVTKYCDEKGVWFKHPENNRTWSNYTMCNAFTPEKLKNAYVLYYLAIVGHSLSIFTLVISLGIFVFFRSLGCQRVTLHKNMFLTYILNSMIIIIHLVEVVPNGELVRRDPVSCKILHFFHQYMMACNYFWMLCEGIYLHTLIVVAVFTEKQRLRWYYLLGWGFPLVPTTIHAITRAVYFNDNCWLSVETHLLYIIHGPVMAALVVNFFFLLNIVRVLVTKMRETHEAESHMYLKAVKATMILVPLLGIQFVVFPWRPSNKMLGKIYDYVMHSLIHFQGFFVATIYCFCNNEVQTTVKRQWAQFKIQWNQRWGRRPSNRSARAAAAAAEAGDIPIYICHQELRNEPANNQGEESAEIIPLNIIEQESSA
T1 sequence (looked up) 2: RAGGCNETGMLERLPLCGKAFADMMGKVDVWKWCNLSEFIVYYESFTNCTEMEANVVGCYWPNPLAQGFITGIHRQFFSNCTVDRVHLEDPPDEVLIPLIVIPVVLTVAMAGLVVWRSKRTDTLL

T2: human calcitonin receptor (human, UniProt P30988 25-474)
T2 sequence (looked up): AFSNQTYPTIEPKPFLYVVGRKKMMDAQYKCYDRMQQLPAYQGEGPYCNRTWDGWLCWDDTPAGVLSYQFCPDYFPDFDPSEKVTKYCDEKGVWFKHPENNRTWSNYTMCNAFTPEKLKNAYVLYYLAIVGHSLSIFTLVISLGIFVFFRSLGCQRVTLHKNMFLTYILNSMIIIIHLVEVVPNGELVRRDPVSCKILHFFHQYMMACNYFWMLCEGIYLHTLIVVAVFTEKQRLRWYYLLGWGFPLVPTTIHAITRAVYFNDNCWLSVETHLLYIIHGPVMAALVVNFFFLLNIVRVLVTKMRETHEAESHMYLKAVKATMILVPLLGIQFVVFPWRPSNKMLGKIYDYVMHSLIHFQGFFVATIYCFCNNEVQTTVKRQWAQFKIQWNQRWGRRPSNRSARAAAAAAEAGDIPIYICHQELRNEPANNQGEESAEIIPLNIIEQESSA


Assays:
[1] = biological target: T1, human amylin receptor (amylin 3(a) …); assay: cell-based or functional assay
[2] = biological target: T2, human calcitonin receptor; assay: cell-based or functional assay

Binder	hAmylin-R funct. EC50 [1] [pM]	Ratio hCT/hAmylin funct. (hCTR EC50 against hAmylin-R EC50) [2]	hCTR funct. EC50 [2] [pM]
KCNTATCATQRLAEFLRHSSPNFGAIPSSTNVGSNTY (C20 diacid-gGlu-2xOEG on the alpha amino group of the N-terminal residue; Cys2-Cys7 disulfide and C-terminal amide as in human amylin, also called compound 19)	307	17.4	5320
K([AEEA-γGlu-C20 diacid])CNTATCATQRLANFLRHSSPNFGAIPSSTNVGSETY-NH2 (disulfide 2-7; N-terminus assumed; SMILES CC[C@H](C)[C@H](NC(=O)[C@H](C)NC(=O)CNC(=O)[C@H](Cc1ccccc1)NC(=O)[C@H](CC(N)=O)NC(=O)[C@@H]1CCCN1C(=O)[C@H](CO)NC(=O)[C@H](CO)NC(=O)[C@H](Cc1c[nH]cn1)NC(=O)[C@H](CCCNC(=N)N)NC(=O)[C@H](CC(C)C)NC(=O)[C@H](Cc1ccccc1)NC(=O)[C@H](CC(N)=O)NC(=O)[C@H](C)NC(=O)[C@H](CC(C)C)NC(=O)[C@H](CCCNC(=N)N)NC(=O)[C@H](CCC(N)=O)NC(=O)[C@@H](NC(=O)[C@H](C)NC(=O)[C@@H]1CSSC[C@H](NC(=O)[C@@H](N)CCCCNC(=O)COCCOCCNC(=O)CC[C@H](NC(=O)CCCCCCCCCCCCCCCCCCC(=O)O)C(=O)O)C(=O)N[C@@H](CC(N)=O)C(=O)N[C@@H]([C@@H](C)O)C(=O)N[C@@H](C)C(=O)N[C@@H]([C@@H](C)O)C(=O)N1)[C@@H](C)O)C(=O)N1CCC[C@H]1C(=O)N[C@@H](CO)C(=O)N[C@@H](CO)C(=O)N[C@H](C(=O)N[C@@H](CC(N)=O)C(=O)N[C@H](C(=O)NCC(=O)N[C@@H](CO)C(=O)N[C@@H](CCC(=O)O)C(=O)N[C@H](C(=O)N[C@@H](Cc1ccc(O)cc1)C(N)=O)[C@@H](C)O)C(C)C)[C@@H](C)O, also called compound 26)	212	29.9	6340
K([γGlu-C20 diacid])CNTATCATQRLANFLRHSSPNFGAIPSSTNVGSETY-NH2 (disulfide 2-7; N-terminus assumed; SMILES CC[C@H](C)[C@H](NC(=O)[C@H](C)NC(=O)CNC(=O)[C@H](Cc1ccccc1)NC(=O)[C@H](CC(N)=O)NC(=O)[C@@H]1CCCN1C(=O)[C@H](CO)NC(=O)[C@H](CO)NC(=O)[C@H](Cc1c[nH]cn1)NC(=O)[C@H](CCCNC(=N)N)NC(=O)[C@H](CC(C)C)NC(=O)[C@H](Cc1ccccc1)NC(=O)[C@H](CC(N)=O)NC(=O)[C@H](C)NC(=O)[C@H](CC(C)C)NC(=O)[C@H](CCCNC(=N)N)NC(=O)[C@H](CCC(N)=O)NC(=O)[C@@H](NC(=O)[C@H](C)NC(=O)[C@@H]1CSSC[C@H](NC(=O)[C@@H](N)CCCCNC(=O)CC[C@H](NC(=O)CCCCCCCCCCCCCCCCCCC(=O)O)C(=O)O)C(=O)N[C@@H](CC(N)=O)C(=O)N[C@@H]([C@@H](C)O)C(=O)N[C@@H](C)C(=O)N[C@@H]([C@@H](C)O)C(=O)N1)[C@@H](C)O)C(=O)N1CCC[C@H]1C(=O)N[C@@H](CO)C(=O)N[C@@H](CO)C(=O)N[C@H](C(=O)N[C@@H](CC(N)=O)C(=O)N[C@H](C(=O)NCC(=O)N[C@@H](CO)C(=O)N[C@@H](CCC(=O)O)C(=O)N[C@H](C(=O)N[C@@H](Cc1ccc(O)cc1)C(N)=O)[C@@H](C)O)C(C)C)[C@@H](C)O, also called compound 27) [N^ε1-[(4S)-4-carboxy-4-(19-carboxynonadecanoylamino)butanoyl]-[Arg17,Pro21,Pro27,Glu35]-h-amylin]	133	22.6	3000
K([AEEA-γGlu-C20 diacid])CNTATCATQRLANFLRHSSPNFGAIPSSTNVGSNTY-NH2 (disulfide 2-7; N-terminus assumed; SMILES CC[C@H](C)[C@H](NC(=O)[C@H](C)NC(=O)CNC(=O)[C@H](Cc1ccccc1)NC(=O)[C@H](CC(N)=O)NC(=O)[C@@H]1CCCN1C(=O)[C@H](CO)NC(=O)[C@H](CO)NC(=O)[C@H](Cc1c[nH]cn1)NC(=O)[C@H](CCCNC(=N)N)NC(=O)[C@H](CC(C)C)NC(=O)[C@H](Cc1ccccc1)NC(=O)[C@H](CC(N)=O)NC(=O)[C@H](C)NC(=O)[C@H](CC(C)C)NC(=O)[C@H](CCCNC(=N)N)NC(=O)[C@H](CCC(N)=O)NC(=O)[C@@H](NC(=O)[C@H](C)NC(=O)[C@@H]1CSSC[C@H](NC(=O)[C@@H](N)CCCCNC(=O)COCCOCCNC(=O)CC[C@H](NC(=O)CCCCCCCCCCCCCCCCCCC(=O)O)C(=O)O)C(=O)N[C@@H](CC(N)=O)C(=O)N[C@@H]([C@@H](C)O)C(=O)N[C@@H](C)C(=O)N[C@@H]([C@@H](C)O)C(=O)N1)[C@@H](C)O)C(=O)N1CCC[C@H]1C(=O)N[C@@H](CO)C(=O)N[C@@H](CO)C(=O)N[C@H](C(=O)N[C@@H](CC(N)=O)C(=O)N[C@H](C(=O)NCC(=O)N[C@@H](CO)C(=O)N[C@@H](CC(N)=O)C(=O)N[C@H](C(=O)N[C@@H](Cc1ccc(O)cc1)C(N)=O)[C@@H](C)O)C(C)C)[C@@H](C)O, also called compound 41)	260	16.7	4350

Further lines, results first:

hAmylin-R funct. EC50 [1] [pM]	Ratio hCT/hAmylin funct. (hCTR EC50 against hAmylin-R EC50) [2]	hCTR funct. EC50 [2] [pM]	Binder
364	15	5460	K([γGlu-C20 diacid])CNTATCATQRLANFLRHSSPNFGAIPSSTNVGSKTY-NH2 (disulfide 2-7; N-terminus assumed; SMILES CC[C@H](C)[C@H](NC(=O)[C@H](C)NC(=O)CNC(=O)[C@H](Cc1ccccc1)NC(=O)[C@H](CC(N)=O)NC(=O)[C@@H]1CCCN1C(=O)[C@H](CO)NC(=O)[C@H](CO)NC(=O)[C@H](Cc1c[nH]cn1)NC(=O)[C@H](CCCNC(=N)N)NC(=O)[C@H](CC(C)C)NC(=O)[C@H](Cc1ccccc1)NC(=O)[C@H](CC(N)=O)NC(=O)[C@H](C)NC(=O)[C@H](CC(C)C)NC(=O)[C@H](CCCNC(=N)N)NC(=O)[C@H](CCC(N)=O)NC(=O)[C@@H](NC(=O)[C@H](C)NC(=O)[C@@H]1CSSC[C@H](NC(=O)[C@@H](N)CCCCNC(=O)CC[C@H](NC(=O)CCCCCCCCCCCCCCCCCCC(=O)O)C(=O)O)C(=O)N[C@@H](CC(N)=O)C(=O)N[C@@H]([C@@H](C)O)C(=O)N[C@@H](C)C(=O)N[C@@H]([C@@H](C)O)C(=O)N1)[C@@H](C)O)C(=O)N1CCC[C@H]1C(=O)N[C@@H](CO)C(=O)N[C@@H](CO)C(=O)N[C@H](C(=O)N[C@@H](CC(N)=O)C(=O)N[C@H](C(=O)NCC(=O)N[C@@H](CO)C(=O)N[C@@H](CCCCN)C(=O)N[C@H](C(=O)N[C@@H](Cc1ccc(O)cc1)C(N)=O)[C@@H](C)O)C(C)C)[C@@H](C)O, also called compound 35) [N^ε1-[(4S)-4-carboxy-4-(19-carboxynonadecanoylamino)butanoyl]-[Arg17,Pro21,Pro27,Lys35]-h-amylin]
182	16.4	3000	K([γGlu-γGlu-C20 diacid])CNTATCATQRLADFLRHSSPNFGAIPSSTNVGSDTY-NH2 (disulfide 2-7; N-terminus assumed; SMILES CC[C@H](C)[C@H](NC(=O)[C@H](C)NC(=O)CNC(=O)[C@H](Cc1ccccc1)NC(=O)[C@H](CC(N)=O)NC(=O)[C@@H]1CCCN1C(=O)[C@H](CO)NC(=O)[C@H](CO)NC(=O)[C@H](Cc1c[nH]cn1)NC(=O)[C@H](CCCNC(=N)N)NC(=O)[C@H](CC(C)C)NC(=O)[C@H](Cc1ccccc1)NC(=O)[C@H](CC(=O)O)NC(=O)[C@H](C)NC(=O)[C@H](CC(C)C)NC(=O)[C@H](CCCNC(=N)N)NC(=O)[C@H](CCC(N)=O)NC(=O)[C@@H](NC(=O)[C@H](C)NC(=O)[C@@H]1CSSC[C@H](NC(=O)[C@@H](N)CCCCNC(=O)CC[C@H](NC(=O)CC[C@H](NC(=O)CCCCCCCCCCCCCCCCCCC(=O)O)C(=O)O)C(=O)O)C(=O)N[C@@H](CC(N)=O)C(=O)N[C@@H]([C@@H](C)O)C(=O)N[C@@H](C)C(=O)N[C@@H]([C@@H](C)O)C(=O)N1)[C@@H](C)O)C(=O)N1CCC[C@H]1C(=O)N[C@@H](CO)C(=O)N[C@@H](CO)C(=O)N[C@H](C(=O)N[C@@H](CC(N)=O)C(=O)N[C@H](C(=O)NCC(=O)N[C@@H](CO)C(=O)N[C@@H](CC(=O)O)C(=O)N[C@H](C(=O)N[C@@H](Cc1ccc(O)cc1)C(N)=O)[C@@H](C)O)C(C)C)[C@@H](C)O, also called compound 2)
189	6.8	1280	{C20 diacid-γGlu}-KCNTATCATQRLAEFLRHSSPNFGAIPSSTNVGKNTY-NH2 (disulfide 2-7; SMILES CC[C@H](C)[C@H](NC(=O)[C@H](C)NC(=O)CNC(=O)[C@H](Cc1ccccc1)NC(=O)[C@H](CC(N)=O)NC(=O)[C@@H]1CCCN1C(=O)[C@H](CO)NC(=O)[C@H](CO)NC(=O)[C@H](Cc1c[nH]cn1)NC(=O)[C@H](CCCNC(=N)N)NC(=O)[C@H](CC(C)C)NC(=O)[C@H](Cc1ccccc1)NC(=O)[C@H](CCC(=O)O)NC(=O)[C@H](C)NC(=O)[C@H](CC(C)C)NC(=O)[C@H](CCCNC(=N)N)NC(=O)[C@H](CCC(N)=O)NC(=O)[C@@H](NC(=O)[C@H](C)NC(=O)[C@@H]1CSSC[C@H](NC(=O)[C@H](CCCCN)NC(=O)CC[C@H](NC(=O)CCCCCCCCCCCCCCCCCCC(=O)O)C(=O)O)C(=O)N[C@@H](CC(N)=O)C(=O)N[C@@H]([C@@H](C)O)C(=O)N[C@@H](C)C(=O)N[C@@H]([C@@H](C)O)C(=O)N1)[C@@H](C)O)C(=O)N1CCC[C@H]1C(=O)N[C@@H](CO)C(=O)N[C@@H](CO)C(=O)N[C@H](C(=O)N[C@@H](CC(N)=O)C(=O)N[C@H](C(=O)NCC(=O)N[C@@H](CCCCN)C(=O)N[C@@H](CC(N)=O)C(=O)N[C@H](C(=O)N[C@@H](Cc1ccc(O)cc1)C(N)=O)[C@@H](C)O)C(C)C)[C@@H](C)O, also called compound 36)
